Article PMC5388602 (Biochemistry, 2016)

Biological target: the molecule itself
Test: crystal structure

B1: SrpA sialoglycan binding region (SrpABR), tag cleaved, as crystallised (domain or fragment)
chain: RRATDTTPPTITVPSDIIAYRGEEFEFYFEITDDSGQVKNIELSTFGKPLGLNWLEYSEDNFNVPGNATSDNPLRVRVHGTVPLNEPIPADKNRAQFTRTIRAWDAAGNVSSNITFVIKYRAQTDKYNPADPTITYVDRLSSLSPSEKNAVEAAVRAANPQIPAAARITVSANGTVTITYPDSSTDTITANRVVKDLASSR
Q: Which “stoichiometry N” value does the source give for B1 here?
A: Its value is 2.
